This is an account of results in article PMC3592468.

Substrate in the data set: C[C@@H](O)[C@H](N)C(=O)O
Briefly: purified protein. The data set is classed as biochemical, Saccharomyces cerevisiae. As to conditions: 2.5 mM ATP, 2 mM PPi, 10 mM MgCl2, pH 7.5, 30 °C, no tRNA.

B1: ScThrRS (Saccharomyces cerevisiae S288C) (protein)
chain: MSASEAGVTEQVKKLSVKDSSNDAVKPNKKENKKSKQQSLYLDPEPTFIEERIEMFDRLQKEYNDKVASMPRVPLKIVLKDGAVKEATSWETTPMDIAKGISKSLADRLCISKVNGQLWDLDRPFEGEANEEIKLELLDFESDEGKKVFWHSSAHVLGESCECHLGAHICLGPPTDDGFFYEMAVRDSMKDISESPERTVSQADFPGLEGVAKNVIKQKQKFERLVMSKEDLLKMFHYSKYKTYLVQTKVPDGGATTVYRCGKLIDLCVGPHIPHTGRIKAFKLLKNSSCYFLGDATNDSLQRVYGISFPDKKLMDAHLKFLAEASMRDHRKIGKEQELFLFNEMSPGSCFWLPHGTRIYNTLVDLLRTEYRKRGYEEVITPNMYNSKLWETSGHWANYKENMFTFEVEKETFGLKPMNCPGHCLMFKSRERSYRELPWRVADFGVIHRNEFSGALSGLTRVRRFQQDDAHIFCTHDQIESEIENIFNFLQYIYGVFGFEFKMELSTRPEKYVGKIETWDAAESKLESALKKWGGNWEINAGDGAFYGPKIDIMISDALRRWHQCATIQLDFQLPNRFELEFKSKDQDSESYERPVMIHRAILGSVERMTAILTEHFAGKWPFWLSPRQVLVVPVGVKYQGYAEDVRNKLHDAGFYADVDLTGNTLQKKVRNGQMLKYNFIFIVGEQEMNEKSVNIRNRDVMEQQGKNATVSVEEVLKQLRNLKDEKRGDNVLA
In the case of B1, the Km is 210 ± 20 µM, the kcat worked out at 1.72 ± 0.21 s⁻¹ and the kcat/Km worked out at 8190 M⁻¹ s⁻¹.

In general, Km refers to the concentration of substrate that gives half-maximal velocity. As a reminder, the kcat is the maximal rate divided by the concentration of active sites. As usually defined, the kcat/Km is the turnover number divided by the Michaelis constant.
